Key:
[1] = target: CD47 on CD47-overexpressing breast cancer cell line MCF-7 (UniProt Q08722); assay: flow cytometry on MCF-7 cells, secondary antibody alone (background control)
[2] = target: CD47 단백질 (Acrobiosystems, cat# CD7-HA2E9) (UniProt Q08722); assay: ELISA, CD47 protein coated, negative control
[3] = target: CD47 단백질 (Acrobiosystems, cat# CD7-HA2E9) (UniProt Q08722); assay: ELISA, CD47 protein coated, same method as Example 2-1
[4] = target: 인간 CD47 단백질 (Human CD47, SPR analyte) (human, UniProt Q08722 19-139, limits assumed); assay: SPR, Biacore 8K, antibody captured, human CD47 as analyte
Chain of 인간 CD47 단백질 (Human CD47, SPR analyte) (Q08722 19-139 limits assumed): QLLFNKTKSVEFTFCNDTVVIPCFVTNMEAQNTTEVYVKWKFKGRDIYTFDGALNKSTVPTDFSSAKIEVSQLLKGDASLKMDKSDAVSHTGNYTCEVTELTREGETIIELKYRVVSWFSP

Row | Molecule | Kd [4] | koff [4] | kon [4] | further results
1 | PE-conjugated goat anti-mouse IgG (Biolegend Inc., cat# 405307) (antibody) | – | – | – | Mean (fluorescence) [1]: 80; Median (fluorescence) [1]: 73.9
2 | 음성대조군 (negative control of the Hu3A5V10 ELISA) | – | – | – | OD450 [2]: 0.0431 OD450
3 | Hu3A5V10 항체 (humanized 3A5 antibody, as tested in Example 4) (antibody, V domains shown) VH: EVQLVQSGSELKKPGASVKVSCKASGYTFTSYWMHWMRQAPGQGLEWIGVIDPSDSYTSYNQGFTGRFVLSVDTSVSTAYLQISSLKAEDTAVYYCARGGKRAMDYWGQGTTVTVSS VL: DVVMTQSPLSLPVTLGQPASISCRSSQSLVHSNGNTYLHWFQQRPGQSPRLLIYKVSNRFSGVPDRFSGSGSGTDFTLKISRVEAEDVGVYYCSQSTHVPFTFGGGTKLEIK | – | – | – | OD450 [3]: 2.81 OD450
4 | AHF16310 전장 항체 (full length antibody, IgG4) (antibody, V domains shown, also called AHF16310 항체) VH: EVQLVQSGSELKKPGASVKVSCKASGYTFTSYWMHWMRQAPGQGLEWIGVIDPNDSYTSYNQGFTGRFVLSVDTSVSTAYLQISSLKAEDTAVYYCARGGKRMMDYWGQGTTVTVSS VL: DVVMTQSPLSLPVTLGQPASISCRSSQSLVHSNGNTYLHWFQQRPGQSPRLLIYKVSNRFTGVPDRFSGSGSGTDFTLKISRVEAEDVGVYYCSQSTHVPFTFGGGTKLEIKR | 0.208 nM | 0.000458 s⁻¹ | 2.21e+06 M⁻¹ s⁻¹ | –
5 | AHF16312 전장 항체 (full length antibody, IgG4) (antibody, V domains shown, also called AHF16312 항체) VH: EVQLVQSGSELKKPGASVKVSCKASGYTFTSYWMHWMRQAPGQGLEWIGVIDPNDSYTSYNQGFTGRFVLSVDTSVSTAYLQISSLKAEDTAVYYCARGGKRIMDYWGQGTTVTVSS VL: DVVMTQSPLSLPVTLGQPASISCRSSQSLVHSNGNTYLNWFQQRPGQSPRLLIYKVSNRFTGVPDRFSGSGSGTDFTLKISRVEAEDVGVYYCSQSTHVPFTFGGGTKLEIKR | 0.166 nM | 0.000307 s⁻¹ | 1.85e+06 M⁻¹ s⁻¹ | –

More lines, main results first:

Row | Kd [4] | koff [4] | kon [4] | Molecule | further results
6 | 0.465 nM | 0.000467 s⁻¹ | 1e+06 M⁻¹ s⁻¹ | Hu3A5V10 전장 항체 (full length antibody, IgG4) (antibody, V domains shown, also called U822EGG010-Hu3A5V10) VH: EVQLVQSGSELKKPGASVKVSCKASGYTFTSYWMHWMRQAPGQGLEWIGVIDPSDSYTSYNQGFTGRFVLSVDTSVSTAYLQISSLKAEDTAVYYCARGGKRAMDYWGQGTTVTVSS VL: DVVMTQSPLSLPVTLGQPASISCRSSQSLVHSNGNTYLHWFQQRPGQSPRLLIYKVSNRFSGVPDRFSGSGSGTDFTLKISRVEAEDVGVYYCSQSTHVPFTFGGGTKLEIKR | –
7 | 0.312 nM | 0.000865 s⁻¹ | 2.78e+06 M⁻¹ s⁻¹ | AHF16309 전장 항체 (full length antibody, IgG4) (antibody, V domains shown, also called AHF16309 항체) VH: EVQLVQSGSELKKPGASVKVSCKASGYTFTSYWMHWMRQAPGQGLEWIGVIDPNDSYTSYNQGFTGRFVLSVDTSVSTAYLQISSLKAEDTAVYYCARGGKRMMDYWGQGTTVTVSS VL: DVVMTQSPLSLPVTLGQPASISCRSSQSLVHSNGNTYLNWFQQRPGQSPRLLIYKVSNRFPGVPDRFSGSGSGTDFTLKISRVEAEDVGVYYCSQSTHVPFTFGGGTKLEIKR | –

From patent KR20230139570A (dated 2023)
